According to patent US12168773B2, “Engineered phosphoenolpyruvate carboxylase enzymes” (The Regents of the University of California, priority 2019, dated 2024):

What was measured:
[1] = system: Arabidopsis thaliana PPC1 (AtPPC1, C3 PEPC); experiment: malate dehydrogenase coupled PEPC enzymatic assay, Arabidopsis C3 PPC1 and engineered variants; format: biochemical; conditions: for Km: 0-7.5 mM phosphoenolpyruvate, read-out: Km PEP; for Km / Vmax: 25° C, HEPES pH7.5
From the text: For both Arabidopsis C3 PPC1 (AtPPC1) and maize C4 PPC1 (ZmPPC1), the entire coding sequence for each was cloned into pET22b, which contains an amino-terminal 6×-HIS tag for protein purification, and expression was driven by the T7 promoter and lac operon. Relevant mutations were introduced by the Stratagene QuikChange mutagenesis kit using PCR amplification. Both wild type and mutant cDNA constructs were sequenced entirely following cloning into pet22b. Proteins were produced by growing transformed E. coli (BL21 CodonPlus) in autoinduction medium at 18° C. for 16 hours. Proteins were isolated by sonication of bacterial cells followed by passage over a nickel sepharose affinity column, elution with imidazole and separation on a GE SUPERDEX HILOAD 200 PG 16/60 all using an AKTA FPLC.
Enzyme analysis was conducted in vitro using protein that was generated by expression in E. coli using the pET22b vector. For expression, pET22b constructs were transformed into E. coli BL21-DE3 codon plus RIL cells and grown at 37° C. in autoinduction media until reaching an OD=1 after which these were transferred to 18° C. for 18 hours. Samples were collected and lysed by sonication. Protein was purified by passage through a His-trap nickel affinity column on an Akta FPLC and then eluted with 400 mM imidazole. Partially purified protein was then separated on an FPLC equipped with a HiPrep S200 size exclusion column (16/60) after which collected sample was concentrated by centrifugation to a final concentration of 4 mg/ml in 50% glycerol. Samples were stored at −20° C.
For enzymatic assays, a malate dehydrogenase coupled reaction was conducted with a range of substrate concentrations (0-7.5 mM phosphoenolpyruvate pyruvate) and a range of concentrations of allosteric inhibitor (0-50 mM malate). Assays were monitored using a Victor2 microplate reader at 25° C. Reactions consisted of […] PPC enzyme variants, 50 mM HEPES pH7.5, 10 mM MgCl2, 10 mM KHCO3 (carbonate substrate), 0.2 mM NADH, and 10 units/ml of malate dehydrogenase. Reaction time was 15 minutes and samples were measured on an ˜40 second interval. For measurement, which monitors loss of NADH, excitation wavelength was 340 nM and emission wavelength was 460 nM. From these assays, the enzyme kinetics of Tables 4-1 and 4-2 were determined for each enzyme variant.

[2] = system: transgenic Arabidopsis seedlings; experiment: root growth analysis of transgenic Arabidopsis in the presence of aluminum; format: in vivo, Arabidopsis thaliana; conditions: day 7, 20° C, soaked gel, aluminum toxicity equivalent to about 50-100 μM; versus plants expressing wt AtPPC1
Protocol: Root growth was examined in transgenic Arabidopsis engineered to express wt AtPPC1, or a variant PEPC (G678S AtPPC1 or R886G AtPPC1) in a genotypic background devoid of expression of native AtPPC1. Seedlings from the transgenic Arabidopsis strains were grown at 20° C. in a soaked gel environment with aluminum toxicity equivalent to about 50-100 μM in the absence of agar. Root growth was assessed at day 7. […] This is consistent with the improved enzyme kinetics of the G678S AtPPC1 or R886G AtPPC1 enzymes described in Example 5.

B1: AtPPC1 G678S: engineered Arabidopsis thaliana PPC1 with G678S substitution (alr-128), SEQ ID NO:11 (protein)
chain: MANRKLEKMASIDVHLRQLVPGKVSEDDKLVEYDALLLDRFLDILQDLHGEDLRETVQELYEHSAEYEGKHEPKKLEELGSVLTSLDPGDSIVIAKAFSHMLNLANLAEEVQIAYRRRIKKLKKGDFVDESSATTESDLEETFKKLVGDLNKSPEEIFDALKNQTVDLVLTAHPTQSVRRSLLQKHGRIRDCLAQLYAKDITPDDKQELDEALQREIQAAFRTDEIKRTPPTPQDEMRAGMSYFHETIWKGVPKFLRRVDTALKNIGIEERVPYNAPLIQFSSWMGGDRDGNPRVTPEVTRDVCLLARMMAATMYFNQIEDLMFEMSMWRCNDELRARADEVHANSRKDAAKHYIEFWKSIPTTEPYRVILGDVRDKLYHTRERAHQLLSNGHSDVPVEATFINLEQFLEPLELCYRSLCSCGDRPIADGSLLDFLRQVSTFGLSLVRLDIRQESDRHTDVLDAITTHLDIGSYREWSEERRQEWLLSELSGKRPLFGSDLPKTEEIADVLDTFHVIAELPADSFGAYIISMATAPSDVLAVELLQRECRVKQPLRVVPLFEKLADLEAAPAAVARLFSVDWYKNRINGKQEVMIGYSDSGKDAGRLSAAWQLYKAQEELVKVAKEYGVKLTMFHGRGGTVGRGGGPTHLAILSQPPDTINGSLRVTVQGEVIEQSFSEEHLCFRTLQRFTAATLEHGMRPPISPKPEWRALLDEMAVVATEEYRSVVFQEPRFVEYFRLATPELEYGRMNIGSRPSKRKPSGGIESLRAIPWIFAWTQTRFHLPVWLGFGSAIRHVIEKDVRNLHMLQDMYQHWPFFRVTIDLIEMVFAKGDPGIAALYDKLLVSEELWPFGEKLRANFEETKKLILQTAGHKDLLEGDPYLKQRLRLRDSYITTLNVCQAYTLKRIRDPSYHVTLRPHISKEIAESSKPAKELIELNPTSEYAPGLEDTLILTMKGIAAGLQNTG
In the case of B1, the Km [1] is reported as 433 ± 40 µM, the Vmax [1] is reported as 17.784 ± 0.44 units/mg and the “increase in catalytic efficiency over wt AtPPC1” value ([1]; Kcat/Km relative to wt AtPPC1) is reported as ~5 fold. For the same molecule, the “reduction in Km” value ([1]; compared with wt AtPPC1) was 85% and the “root growth in the presence of aluminum” value [2] was “large increase”.

B2: AtPPC1 T778I: engineered Arabidopsis thaliana PPC1 with T778I substitution (alr-139), SEQ ID NO:12 (protein)
chain: MANRKLEKMASIDVHLRQLVPGKVSEDDKLVEYDALLLDRFLDILQDLHGEDLRETVQELYEHSAEYEGKHEPKKLEELGSVLTSLDPGDSIVIAKAFSHMLNLANLAEEVQIAYRRRIKKLKKGDFVDESSATTESDLEETFKKLVGDLNKSPEEIFDALKNQTVDLVLTAHPTQSVRRSLLQKHGRIRDCLAQLYAKDITPDDKQELDEALQREIQAAFRTDEIKRTPPTPQDEMRAGMSYFHETIWKGVPKFLRRVDTALKNIGIEERVPYNAPLIQFSSWMGGDRDGNPRVTPEVTRDVCLLARMMAATMYFNQIEDLMFEMSMWRCNDELRARADEVHANSRKDAAKHYIEFWKSIPTTEPYRVILGDVRDKLYHTRERAHQLLSNGHSDVPVEATFINLEQFLEPLELCYRSLCSCGDRPIADGSLLDFLRQVSTFGLSLVRLDIRQESDRHTDVLDAITTHLDIGSYREWSEERRQEWLLSELSGKRPLFGSDLPKTEEIADVLDTFHVIAELPADSFGAYIISMATAPSDVLAVELLQRECRVKQPLRVVPLFEKLADLEAAPAAVARLFSVDWYKNRINGKQEVMIGYSDSGKDAGRLSAAWQLYKAQEELVKVAKEYGVKLTMFHGRGGTVGRGGGPTHLAILSQPPDTINGSLRVTVQGEVIEQSFGEEHLCFRTLQRFTAATLEHGMRPPISPKPEWRALLDEMAVVATEEYRSVVFQEPRFVEYFRLATPELEYGRMNIGSRPSKRKPSGGIESLRAIPWIFAWIQTRFHLPVWLGFGSAIRHVIEKDVRNLHMLQDMYQHWPFFRVTIDLIEMVFAKGDPGIAALYDKLLVSEELWPFGEKLRANFEETKKLILQTAGHKDLLEGDPYLKQRLRLRDSYITTLNVCQAYTLKRIRDPSYHVTLRPHISKEIAESSKPAKELIELNPTSEYAPGLEDTLILTMKGIAAGLQNTG
B2 was tested, and the Km [1] was 1090 ± 27 µM and the Vmax [1] was 14.738 ± 0.15 units/mg.

B3: AtPPC1 A651V: engineered Arabidopsis thaliana PPC1 with A651V substitution (alr-108), SEQ ID NO:10 (protein)
chain: MANRKLEKMASIDVHLRQLVPGKVSEDDKLVEYDALLLDRFLDILQDLHGEDLRETVQELYEHSAEYEGKHEPKKLEELGSVLTSLDPGDSIVIAKAFSHMLNLANLAEEVQIAYRRRIKKLKKGDFVDESSATTESDLEETFKKLVGDLNKSPEEIFDALKNQTVDLVLTAHPTQSVRRSLLQKHGRIRDCLAQLYAKDITPDDKQELDEALQREIQAAFRTDEIKRTPPTPQDEMRAGMSYFHETIWKGVPKFLRRVDTALKNIGIEERVPYNAPLIQFSSWMGGDRDGNPRVTPEVTRDVCLLARMMAATMYFNQIEDLMFEMSMWRCNDELRARADEVHANSRKDAAKHYIEFWKSIPTTEPYRVILGDVRDKLYHTRERAHQLLSNGHSDVPVEATFINLEQFLEPLELCYRSLCSCGDRPIADGSLLDFLRQVSTFGLSLVRLDIRQESDRHTDVLDAITTHLDIGSYREWSEERRQEWLLSELSGKRPLFGSDLPKTEEIADVLDTFHVIAELPADSFGAYIISMATAPSDVLAVELLQRECRVKQPLRVVPLFEKLADLEAAPAAVARLFSVDWYKNRINGKQEVMIGYSDSGKDAGRLSAAWQLYKAQEELVKVAKEYGVKLTMFHGRGGTVGRGGGPTHLVILSQPPDTINGSLRVTVQGEVIEQSFGEEHLCFRTLQRFTAATLEHGMRPPISPKPEWRALLDEMAVVATEEYRSVVFQEPRFVEYFRLATPELEYGRMNIGSRPSKRKPSGGIESLRAIPWIFAWTQTRFHLPVWLGFGSAIRHVIEKDVRNLHMLQDMYQHWPFFRVTIDLIEMVFAKGDPGIAALYDKLLVSEELWPFGEKLRANFEETKKLILQTAGHKDLLEGDPYLKQRLRLRDSYITTLNVCQAYTLKRIRDPSYHVTLRPHISKEIAESSKPAKELIELNPTSEYAPGLEDTLILTMKGIAAGLQNTG
Work on B3 yielded a Km [1] of 956 ± 40 µM and a Vmax [1] of 15.776 ± 0.25 units/mg.

B4: AtPPC1 wild type: wild type Arabidopsis thaliana PPC1, C3 PEPC, SEQ ID NO:1 (protein)
chain: MANRKLEKMASIDVHLRQLVPGKVSEDDKLVEYDALLLDRFLDILQDLHGEDLRETVQELYEHSAEYEGKHEPKKLEELGSVLTSLDPGDSIVIAKAFSHMLNLANLAEEVQIAYRRRIKKLKKGDFVDESSATTESDLEETFKKLVGDLNKSPEEIFDALKNQTVDLVLTAHPTQSVRRSLLQKHGRIRDCLAQLYAKDITPDDKQELDEALQREIQAAFRTDEIKRTPPTPQDEMRAGMSYFHETIWKGVPKFLRRVDTALKNIGIEERVPYNAPLIQFSSWMGGDRDGNPRVTPEVTRDVCLLARMMAATMYFNQIEDLMFEMSMWRCNDELRARADEVHANSRKDAAKHYIEFWKSIPTTEPYRVILGDVRDKLYHTRERAHQLLSNGHSDVPVEATFINLEQFLEPLELCYRSLCSCGDRPIADGSLLDFLRQVSTFGLSLVRLDIRQESDRHTDVLDAITTHLDIGSYREWSEERRQEWLLSELSGKRPLFGSDLPKTEEIADVLDTFHVIAELPADSFGAYIISMATAPSDVLAVELLQRECRVKQPLRVVPLFEKLADLEAAPAAVARLFSVDWYKNRINGKQEVMIGYSDSGKDAGRLSAAWQLYKAQEELVKVAKEYGVKLTMFHGRGGTVGRGGGPTHLAILSQPPDTINGSLRVTVQGEVIEQSFGEEHLCFRTLQRFTAATLEHGMRPPISPKPEWRALLDEMAVVATEEYRSVVFQEPRFVEYFRLATPELEYGRMNIGSRPSKRKPSGGIESLRAIPWIFAWTQTRFHLPVWLGFGSAIRHVIEKDVRNLHMLQDMYQHWPFFRVTIDLIEMVFAKGDPGIAALYDKLLVSEELWPFGEKLRANFEETKKLILQTAGHKDLLEGDPYLKQRLRLRDSYITTLNVCQAYTLKRIRDPSYHVTLRPHISKEIAESSKPAKELIELNPTSEYAPGLEDTLILTMKGIAAGLQNTG
With B4 the Km [1] was 2740 ± 166 µM and the Vmax [1] was 24.992 ± 0.69 units/mg.
